From article PMC11098746 (2024) come the findings set out here.

Assay in all cases: AVEXIS screen signal:noise (double-corrected)
In assay [1] the target is T1, ADP292.
T1 chain: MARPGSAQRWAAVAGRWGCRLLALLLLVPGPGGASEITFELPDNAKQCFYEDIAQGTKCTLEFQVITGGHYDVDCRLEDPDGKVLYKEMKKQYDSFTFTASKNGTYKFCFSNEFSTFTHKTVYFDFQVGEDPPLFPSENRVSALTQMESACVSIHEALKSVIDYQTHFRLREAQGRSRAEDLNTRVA

The target of assay [2] is T2, ADP269.
T2 chain: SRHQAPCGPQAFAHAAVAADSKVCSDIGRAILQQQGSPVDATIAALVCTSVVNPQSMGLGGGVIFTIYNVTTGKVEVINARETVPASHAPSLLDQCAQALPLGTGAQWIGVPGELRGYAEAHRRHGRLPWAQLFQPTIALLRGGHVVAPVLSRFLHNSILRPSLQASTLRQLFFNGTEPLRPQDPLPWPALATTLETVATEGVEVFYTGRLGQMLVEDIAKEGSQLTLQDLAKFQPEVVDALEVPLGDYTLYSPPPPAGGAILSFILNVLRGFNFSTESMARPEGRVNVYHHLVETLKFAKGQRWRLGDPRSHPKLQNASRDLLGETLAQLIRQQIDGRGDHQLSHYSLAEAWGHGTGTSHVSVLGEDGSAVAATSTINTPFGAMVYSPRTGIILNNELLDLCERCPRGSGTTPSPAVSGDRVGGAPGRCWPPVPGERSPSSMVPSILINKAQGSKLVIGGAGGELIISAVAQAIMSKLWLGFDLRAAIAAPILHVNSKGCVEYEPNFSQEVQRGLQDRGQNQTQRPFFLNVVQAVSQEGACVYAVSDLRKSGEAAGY

In assay [3] the target is ADP123.

B1: ADP237 (protein)
chain: TKKKVSVSEINFDSAVDDVQWCGNNHMTVLVKTVKGRLYRSSDGGKIWTNIAGNLADKENNKADPSSNHMNEMTTVDLIMVNSVNKNIVLIIGNQKNHYISEDSGETFRLLNYQNKINFWQFHSTKTHWALVSSWTEACYSNDDNSGECMQTLSLTKDLGRTFQLIDIYVVQFNWGDKESHLEDTIYYTRHKNRNGHQQRFSGWSKDVDFVATHNFGKSVDVLVKQGNKFLISNGYIFVAKLNDVIKQTVNMMVSTDGGKTFNKANLPENIHEKSYTVLDTSEGSIMLHVNHGTSSEKINTGNVYISDASGLNYALSLPNNIRTSSGECEFDRVLSLDGVYIANFLDVNNEIKDEDLRFQNFKSAIEEDIAPFETNTEKRKKQYNKGKNEDAVRTVISFNKGGEWSYLKAPKVDSRGNKYECGDNCYLHLHGITNYHQYAPFYSIENAVGIIMGTGNVGSHLRYESDEVNTFLSRDGGVTWIEAHKGPYIYEYGDYGGLIVMADDLRKTNQIVFSWNEGQSWFDFELGQFSIDVDNIVAEPNSASVEFLVYGTRNDVGVLYHLDFNALGQPLCKGLWAADSVSSDYETWSPTSGNFNDKCILGRKITYTRRKQTSECFNGKDLKRTVDKKPCECTPEDYECETGFTRKIGSYECKPNDPTLTIEGCTSSSYFYANAYRKVPGDICVNGWVPEKVPVPCPSYAPFNKAAK
modifications: bait human Fc-tagged dimer; N-glycosylation sequons mutated in Plasmodium baits
As to B1, the binding score in assay [1] worked out at 5.28; in assay [2], 10.4; in assay [3], 5.84.
